This note sets out measurements from paper PMC11315935, “Multi-layered heterochromatin interaction as a switch for DIM2-mediated DNA methylation” (Nature Communications, 2024).

The assay relates to (CTA)12/(TAG)12 36-mer DNA duplex. As to the kind of experiment: In vitro DNA methylation assay of DIM2 (WT or mutant). The class given is biochemical. More on the design: DNA methylation activity: unit not given here. The following applies: 30 min, pH 8.0; for DNA methylation activity of DIM2 (in words): 1.0 µM DIM2, 30 °C; for DNA methylation activity: Fig. 6d, H3_1-24K9me3 binding-associated mutants, 1.0 µM DIM2, 1.0 µM DNA duplex, 30 °C.

B1: DIM2W261A/W581A: DIM2 with W261A/W581A double mutation (protein)
chain: MDSPDRSHGGMFIDVPAETMGFQEDYLDMFASVLSQGLAKEGDYAHHQPLPAGKEECLEPIAVATTITPSPDDPQLQLQLELEQQFQTESGLNGVDPAPAPESEDEADLPDGFSDESPDDDFVVQRSKHITVDLPVSTLINPRSTFQRIDENDNLVPPPQSTPERVAVEDLLKAAKAAGKNKEDYIEFELHDFNFYVNYAYHPQEMRPIQLVATKVLHDKYYFDGVLKYGNTKHYVTGMQVLELPVGNYGASLHSVKGQIAVRSKHNAKKEIYYLLKKPAFEYQRYYQPFLWIADLGKHVVDYCTRMVERKREVTLGCFKSDFIQWASKAHGKSKAFQNWRAQHPSDDFRTSVAANIGYIWKEINGVAGAKRAAGDQLFRELMIVKPGQYFRQEVPPGPVVTEGDRTVAATIVTPYIKECFGHMILGKVLRLAGEDAEKEKEVKLAKRLKIENKNATKADTKDDMKNDTATESLPTPLRSLPVQVLEATPIESDIVSIVSSDLPPSENNPPPLTNGSVKPKAKANPKPKPSTQPLHAAHVKYLSQELVNKIKVGDVISTPRDDSSNTDTKWKPTDTDDHRAFGLVQRVHTAKTKSSGRGLNSKSFDVIWFYRPEDTPCCAMKYKWRNELFLSNHCTCQEGHHARVKGNEVLAVHPVDWFGTPESNKGEFFVRQLYESEQRRWITLQKDHLTCYHNQPPKPPTAPYKPGDTVLATLSPSDKFSDPYEVVEYFTQGEKETAFVRLRKLLRRRKVDRQDAPANELVYTEDLVDVRAERIVGKCIMRCFRPDERVPSPYDRGGTGNMFFITHRQDHGRCVPLDTLPPTLRQGFNPLGNLGKPKLRGMDLYCGGGNFGRGLEEGGVVEMRWANDIWDKAIHTYMANTPDPNKTNPFLGSVDDLLRLALEGKFSDNVPRPGEVDFIAAGSPCPGFSLLTQDKKVLNQVKNQSLVASFASFVDFYRPKYGVLENVSGIVQTFVNRKQDVLSQLFCALVGMGYQAQLILGDAWAHGAPQSRERVFLYFAAPGLPLPDPPLPSHSHYRVKNRNIGFLCNGESYVQRSFIPTAFKFVSAGEGTADLPKIGDGKPDACVRFPDHRLASGITPYIRAQYACIPTHPYGMNFIKAWNNGNGVMSKSDRDLFPSEGKTRTSDASVGWKRLNPKTLFPTVTTTSNPSDARMGPGLHWDEDRPYTVQEMRRAQGYLDEEVLVGRTTDQWKLVGNSVSRHMALAIGLKFREAWLGTLYD
modifications: left off: His6, N-terminal, cleaved | MBP, N-terminal, cleaved
notes: DIM2 with W261A/W581A double mutation
Consider B1, for which the “DNA methylation activity of DIM2 (in words)” value was “largely abolished the DNA methylation activity”. This molecule displayed a DNA methylation activity (replicate 1) of 0.373. Also, where the note is “replicate 2”, the DNA methylation activity amounted to 0.344. Where the note is “replicate 3”, this molecule yielded a DNA methylation activity of 0.323.

B2: DIM2N1050A: DIM2 with mutation in the bridging loop (N1050A) (protein)
chain: MDSPDRSHGGMFIDVPAETMGFQEDYLDMFASVLSQGLAKEGDYAHHQPLPAGKEECLEPIAVATTITPSPDDPQLQLQLELEQQFQTESGLNGVDPAPAPESEDEADLPDGFSDESPDDDFVVQRSKHITVDLPVSTLINPRSTFQRIDENDNLVPPPQSTPERVAVEDLLKAAKAAGKNKEDYIEFELHDFNFYVNYAYHPQEMRPIQLVATKVLHDKYYFDGVLKYGNTKHYVTGMQVLELPVGNYGASLHSVKGQIWVRSKHNAKKEIYYLLKKPAFEYQRYYQPFLWIADLGKHVVDYCTRMVERKREVTLGCFKSDFIQWASKAHGKSKAFQNWRAQHPSDDFRTSVAANIGYIWKEINGVAGAKRAAGDQLFRELMIVKPGQYFRQEVPPGPVVTEGDRTVAATIVTPYIKECFGHMILGKVLRLAGEDAEKEKEVKLAKRLKIENKNATKADTKDDMKNDTATESLPTPLRSLPVQVLEATPIESDIVSIVSSDLPPSENNPPPLTNGSVKPKAKANPKPKPSTQPLHAAHVKYLSQELVNKIKVGDVISTPRDDSSNTDTKWKPTDTDDHRWFGLVQRVHTAKTKSSGRGLNSKSFDVIWFYRPEDTPCCAMKYKWRNELFLSNHCTCQEGHHARVKGNEVLAVHPVDWFGTPESNKGEFFVRQLYESEQRRWITLQKDHLTCYHNQPPKPPTAPYKPGDTVLATLSPSDKFSDPYEVVEYFTQGEKETAFVRLRKLLRRRKVDRQDAPANELVYTEDLVDVRAERIVGKCIMRCFRPDERVPSPYDRGGTGNMFFITHRQDHGRCVPLDTLPPTLRQGFNPLGNLGKPKLRGMDLYCGGGNFGRGLEEGGVVEMRWANDIWDKAIHTYMANTPDPNKTNPFLGSVDDLLRLALEGKFSDNVPRPGEVDFIAAGSPCPGFSLLTQDKKVLNQVKNQSLVASFASFVDFYRPKYGVLENVSGIVQTFVNRKQDVLSQLFCALVGMGYQAQLILGDAWAHGAPQSRERVFLYFAAPGLPLPDPPLPSHSHYRVKNRNIGFLCAGESYVQRSFIPTAFKFVSAGEGTADLPKIGDGKPDACVRFPDHRLASGITPYIRAQYACIPTHPYGMNFIKAWNNGNGVMSKSDRDLFPSEGKTRTSDASVGWKRLNPKTLFPTVTTTSNPSDARMGPGLHWDEDRPYTVQEMRRAQGYLDEEVLVGRTTDQWKLVGNSVSRHMALAIGLKFREAWLGTLYD
modifications: left off: His6, N-terminal, cleaved | MBP, N-terminal, cleaved
For the molecule B2, the “DNA methylation activity of DIM2 (in words)” value was “marked decrease of the DNA methylation activity”. Besides, under “replicate 1”, the DNA methylation activity worked out at 5.118. For the same molecule, under “replicate 2”, the DNA methylation activity worked out at 5.385. This molecule came in with a DNA methylation activity (replicate 3) of 5.072.

B3: DIM2E649A: DIM2 with mutation in the BAH1 domain (E649A) (protein)
chain: MDSPDRSHGGMFIDVPAETMGFQEDYLDMFASVLSQGLAKEGDYAHHQPLPAGKEECLEPIAVATTITPSPDDPQLQLQLELEQQFQTESGLNGVDPAPAPESEDEADLPDGFSDESPDDDFVVQRSKHITVDLPVSTLINPRSTFQRIDENDNLVPPPQSTPERVAVEDLLKAAKAAGKNKEDYIEFELHDFNFYVNYAYHPQEMRPIQLVATKVLHDKYYFDGVLKYGNTKHYVTGMQVLELPVGNYGASLHSVKGQIWVRSKHNAKKEIYYLLKKPAFEYQRYYQPFLWIADLGKHVVDYCTRMVERKREVTLGCFKSDFIQWASKAHGKSKAFQNWRAQHPSDDFRTSVAANIGYIWKEINGVAGAKRAAGDQLFRELMIVKPGQYFRQEVPPGPVVTEGDRTVAATIVTPYIKECFGHMILGKVLRLAGEDAEKEKEVKLAKRLKIENKNATKADTKDDMKNDTATESLPTPLRSLPVQVLEATPIESDIVSIVSSDLPPSENNPPPLTNGSVKPKAKANPKPKPSTQPLHAAHVKYLSQELVNKIKVGDVISTPRDDSSNTDTKWKPTDTDDHRWFGLVQRVHTAKTKSSGRGLNSKSFDVIWFYRPEDTPCCAMKYKWRNELFLSNHCTCQEGHHARVKGNAVLAVHPVDWFGTPESNKGEFFVRQLYESEQRRWITLQKDHLTCYHNQPPKPPTAPYKPGDTVLATLSPSDKFSDPYEVVEYFTQGEKETAFVRLRKLLRRRKVDRQDAPANELVYTEDLVDVRAERIVGKCIMRCFRPDERVPSPYDRGGTGNMFFITHRQDHGRCVPLDTLPPTLRQGFNPLGNLGKPKLRGMDLYCGGGNFGRGLEEGGVVEMRWANDIWDKAIHTYMANTPDPNKTNPFLGSVDDLLRLALEGKFSDNVPRPGEVDFIAAGSPCPGFSLLTQDKKVLNQVKNQSLVASFASFVDFYRPKYGVLENVSGIVQTFVNRKQDVLSQLFCALVGMGYQAQLILGDAWAHGAPQSRERVFLYFAAPGLPLPDPPLPSHSHYRVKNRNIGFLCNGESYVQRSFIPTAFKFVSAGEGTADLPKIGDGKPDACVRFPDHRLASGITPYIRAQYACIPTHPYGMNFIKAWNNGNGVMSKSDRDLFPSEGKTRTSDASVGWKRLNPKTLFPTVTTTSNPSDARMGPGLHWDEDRPYTVQEMRRAQGYLDEEVLVGRTTDQWKLVGNSVSRHMALAIGLKFREAWLGTLYD
modifications: left off: His6, N-terminal, cleaved | MBP, N-terminal, cleaved
For the molecule B3, the “DNA methylation activity of DIM2 (in words)” value is given as “marked decrease of the DNA methylation activity”. In addition, the DNA methylation activity (replicate 1) was 3.26. Also, where the note is “replicate 2”, the DNA methylation activity came out at 3.183. Further, the DNA methylation activity (replicate 3) stood at 3.28.

B4: DIM2K362A: DIM2 with H3K9me3-binding site mutation in the RFTS domain (K362A) (protein)
chain: MDSPDRSHGGMFIDVPAETMGFQEDYLDMFASVLSQGLAKEGDYAHHQPLPAGKEECLEPIAVATTITPSPDDPQLQLQLELEQQFQTESGLNGVDPAPAPESEDEADLPDGFSDESPDDDFVVQRSKHITVDLPVSTLINPRSTFQRIDENDNLVPPPQSTPERVAVEDLLKAAKAAGKNKEDYIEFELHDFNFYVNYAYHPQEMRPIQLVATKVLHDKYYFDGVLKYGNTKHYVTGMQVLELPVGNYGASLHSVKGQIWVRSKHNAKKEIYYLLKKPAFEYQRYYQPFLWIADLGKHVVDYCTRMVERKREVTLGCFKSDFIQWASKAHGKSKAFQNWRAQHPSDDFRTSVAANIGYIWAEINGVAGAKRAAGDQLFRELMIVKPGQYFRQEVPPGPVVTEGDRTVAATIVTPYIKECFGHMILGKVLRLAGEDAEKEKEVKLAKRLKIENKNATKADTKDDMKNDTATESLPTPLRSLPVQVLEATPIESDIVSIVSSDLPPSENNPPPLTNGSVKPKAKANPKPKPSTQPLHAAHVKYLSQELVNKIKVGDVISTPRDDSSNTDTKWKPTDTDDHRWFGLVQRVHTAKTKSSGRGLNSKSFDVIWFYRPEDTPCCAMKYKWRNELFLSNHCTCQEGHHARVKGNEVLAVHPVDWFGTPESNKGEFFVRQLYESEQRRWITLQKDHLTCYHNQPPKPPTAPYKPGDTVLATLSPSDKFSDPYEVVEYFTQGEKETAFVRLRKLLRRRKVDRQDAPANELVYTEDLVDVRAERIVGKCIMRCFRPDERVPSPYDRGGTGNMFFITHRQDHGRCVPLDTLPPTLRQGFNPLGNLGKPKLRGMDLYCGGGNFGRGLEEGGVVEMRWANDIWDKAIHTYMANTPDPNKTNPFLGSVDDLLRLALEGKFSDNVPRPGEVDFIAAGSPCPGFSLLTQDKKVLNQVKNQSLVASFASFVDFYRPKYGVLENVSGIVQTFVNRKQDVLSQLFCALVGMGYQAQLILGDAWAHGAPQSRERVFLYFAAPGLPLPDPPLPSHSHYRVKNRNIGFLCNGESYVQRSFIPTAFKFVSAGEGTADLPKIGDGKPDACVRFPDHRLASGITPYIRAQYACIPTHPYGMNFIKAWNNGNGVMSKSDRDLFPSEGKTRTSDASVGWKRLNPKTLFPTVTTTSNPSDARMGPGLHWDEDRPYTVQEMRRAQGYLDEEVLVGRTTDQWKLVGNSVSRHMALAIGLKFREAWLGTLYD
modifications: left off: His6, N-terminal, cleaved | MBP, N-terminal, cleaved
On to B4, for which the “DNA methylation activity of DIM2 (in words)” value was “marked decrease of the DNA methylation activity”. Further, the DNA methylation activity (replicate 1) is on record as 1.971. Further, where the note is “replicate 2”, the DNA methylation activity was determined as 1.588. Further, the DNA methylation activity (replicate 3) is recorded as 1.581.
